Measurements taken from article PMC6981440 (International Journal of Molecular Sciences, 2019).

What was measured:
[1] = biological target: mouse anti-GM1 IgG2b(κ) antibody GB2 (mouse); assay: high-speed atomic force microscopy; antibody at 10 μg/mL in phosphate-buffered saline, 3 min on a mica-supported DOPC bilayer with GM1 (rings at >25% GM1; 50% GM1 in Figure 4), unbound antibody washed off; room temperature
[2] = biological target: the molecule itself; assay: crystal structure; apo Fc of GB2; 16% PEG3350, 0.2 M lithium chloride, 0.1 M Bis-Tris pH 6.5, 20 °C; P2(1)2(1)2(1), three Fc dimers per asymmetric unit, 2.30 Å

Molecule: mouse anti-GM1 IgG2b(κ) antibody GB2
- stoichiometry N [1]: 6

B1: Fc fragment of GB2 (mouse IgG2b-Fc, apo form) (domain or fragment)
chain: CPAPNLEGGPSVFIFPPNIKDVLMISLTPKVTCVVVDVSEDDPDVQISWFVNNVEVHTAQTQTHREDYNSTIRVVSTLPIQHQDWMSGKEFKCKVNNKDLPSPIERTISKIKGLVRAPQVYILPPPAEQLSRKDVSLTCLVVGFNPGDISVEWTSNGHTEENYKDTAPVLDSDGSYFIYSKLNMKTSKWEKTDSFSCNVRHEGLKNYYLKKTISRSPG
notes: Fc fragment of the mouse IgG2b heavy chain of GB2, cut by papain; Fc dimer; three Fc dimers per asymmetric unit in the crystal; also called apo Fc; source: papain digestion of GB2 from mouse hybridoma, purified (Affi-gel protein A column)
- stoichiometry N [2]: 3
